B1: I49V (designed binder)
chain: MTLQELLREEALRRAEAEAFRYALELLAEKFPEQKEYLLDLAEEIESQVRSLSGVDVEDVRKFLDKEWAWVKELLAEHPAELAEVEAARAARLAELRAEVEAKVAA
B2: E77N (designed binder)
chain: MTLQELLREEALRRAEAEAFRYALELLAEKFPEQKEYLLDLAEEIESQIRSLSGVDVEDVRKFLDKEWAWVKELLANHPAELAEVEAARAARLAELRAEVEAKVAA
B3: R13W (designed binder)
chain: MTLQELLREEALWRAEAEAFRYALELLAEKFPEQKEYLLDLAEEIESQIRSLSGVDVEDVRKFLDKEWAWVKELLAEHPAELAEVEAARAARLAELRAEVEAKVAA
B4: L27D (designed binder)
chain: MTLQELLREEALRRAEAEAFRYALELDAEKFPEQKEYLLDLAEEIESQIRSLSGVDVEDVRKFLDKEWAWVKELLAEHPAELAEVEAARAARLAELRAEVEAKVAA
B5: E77S (designed binder)
chain: MTLQELLREEALRRAEAEAFRYALELLAEKFPEQKEYLLDLAEEIESQIRSLSGVDVEDVRKFLDKEWAWVKELLASHPAELAEVEAARAARLAELRAEVEAKVAA
B6: A23Y (designed binder)
chain: MTLQELLREEALRRAEAEAFRYYLELLAEKFPEQKEYLLDLAEEIESQIRSLSGVDVEDVRKFLDKEWAWVKELLAEHPAELAEVEAARAARLAELRAEVEAKVAA
B7: E84G (designed binder)
chain: MTLQELLREEALRRAEAEAFRYALELLAEKFPEQKEYLLDLAEEIESQIRSLSGVDVEDVRKFLDKEWAWVKELLAEHPAELAGVEAARAARLAELRAEVEAKVAA
B8: R13E (designed binder)
chain: MTLQELLREEALERAEAEAFRYALELLAEKFPEQKEYLLDLAEEIESQIRSLSGVDVEDVRKFLDKEWAWVKELLAEHPAELAEVEAARAARLAELRAEVEAKVAA
B9: D40T (designed binder)
chain: MTLQELLREEALRRAEAEAFRYALELLAEKFPEQKEYLLTLAEEIESQIRSLSGVDVEDVRKFLDKEWAWVKELLAEHPAELAEVEAARAARLAELRAEVEAKVAA
B10: W70G (designed binder)
chain: MTLQELLREEALRRAEAEAFRYALELLAEKFPEQKEYLLDLAEEIESQIRSLSGVDVEDVRKFLDKEWAGVKELLAEHPAELAEVEAARAARLAELRAEVEAKVAA
B11: V100M (designed binder)
chain: MTLQELLREEALRRAEAEAFRYALELLAEKFPEQKEYLLDLAEEIESQIRSLSGVDVEDVRKFLDKEWAWVKELLAEHPAELAEVEAARAARLAELRAEMEAKVAA
B12: Q4C (designed binder)
chain: MTLCELLREEALRRAEAEAFRYALELLAEKFPEQKEYLLDLAEEIESQIRSLSGVDVEDVRKFLDKEWAWVKELLAEHPAELAEVEAARAARLAELRAEVEAKVAA
B13: E43N (designed binder)
chain: MTLQELLREEALRRAEAEAFRYALELLAEKFPEQKEYLLDLANEIESQIRSLSGVDVEDVRKFLDKEWAWVKELLAEHPAELAEVEAARAARLAELRAEVEAKVAA
B14: A15M (designed binder)
chain: MTLQELLREEALRRMEAEAFRYALELLAEKFPEQKEYLLDLAEEIESQIRSLSGVDVEDVRKFLDKEWAWVKELLAEHPAELAEVEAARAARLAELRAEVEAKVAA
B15: E33M (designed binder)
chain: MTLQELLREEALRRAEAEAFRYALELLAEKFPMQKEYLLDLAEEIESQIRSLSGVDVEDVRKFLDKEWAWVKELLAEHPAELAEVEAARAARLAELRAEVEAKVAA
B16: L26I (designed binder)
chain: MTLQELLREEALRRAEAEAFRYALEILAEKFPEQKEYLLDLAEEIESQIRSLSGVDVEDVRKFLDKEWAWVKELLAEHPAELAEVEAARAARLAELRAEVEAKVAA
B17: G54I (designed binder)
chain: MTLQELLREEALRRAEAEAFRYALELLAEKFPEQKEYLLDLAEEIESQIRSLSIVDVEDVRKFLDKEWAWVKELLAEHPAELAEVEAARAARLAELRAEVEAKVAA
B18: D65F (designed binder)
chain: MTLQELLREEALRRAEAEAFRYALELLAEKFPEQKEYLLDLAEEIESQIRSLSGVDVEDVRKFLFKEWAWVKELLAEHPAELAEVEAARAARLAELRAEVEAKVAA
B19: A23Q (designed binder)
chain: MTLQELLREEALRRAEAEAFRYQLELLAEKFPEQKEYLLDLAEEIESQIRSLSGVDVEDVRKFLDKEWAWVKELLAEHPAELAEVEAARAARLAELRAEVEAKVAA
B20: L6Q (designed binder)
chain: MTLQEQLREEALRRAEAEAFRYALELLAEKFPEQKEYLLDLAEEIESQIRSLSGVDVEDVRKFLDKEWAWVKELLAEHPAELAEVEAARAARLAELRAEVEAKVAA
B21: R8L (designed binder)
chain: MTLQELLLEEALRRAEAEAFRYALELLAEKFPEQKEYLLDLAEEIESQIRSLSGVDVEDVRKFLDKEWAWVKELLAEHPAELAEVEAARAARLAELRAEVEAKVAA
B22: L82Q (designed binder)
chain: MTLQELLREEALRRAEAEAFRYALELLAEKFPEQKEYLLDLAEEIESQIRSLSGVDVEDVRKFLDKEWAWVKELLAEHPAEQAEVEAARAARLAELRAEVEAKVAA
B23: A105L (designed binder)
chain: MTLQELLREEALRRAEAEAFRYALELLAEKFPEQKEYLLDLAEEIESQIRSLSGVDVEDVRKFLDKEWAWVKELLAEHPAELAEVEAARAARLAELRAEVEAKVLA
B24: S47W (designed binder)
chain: MTLQELLREEALRRAEAEAFRYALELLAEKFPEQKEYLLDLAEEIEWQIRSLSGVDVEDVRKFLDKEWAWVKELLAEHPAELAEVEAARAARLAELRAEVEAKVAA
B25: A17L (designed binder)
chain: MTLQELLREEALRRAELEAFRYALELLAEKFPEQKEYLLDLAEEIESQIRSLSGVDVEDVRKFLDKEWAWVKELLAEHPAELAEVEAARAARLAELRAEVEAKVAA
B26: K35D (designed binder)
chain: MTLQELLREEALRRAEAEAFRYALELLAEKFPEQDEYLLDLAEEIESQIRSLSGVDVEDVRKFLDKEWAWVKELLAEHPAELAEVEAARAARLAELRAEVEAKVAA
B27: L6P (designed binder)
chain: MTLQEPLREEALRRAEAEAFRYALELLAEKFPEQKEYLLDLAEEIESQIRSLSGVDVEDVRKFLDKEWAWVKELLAEHPAELAEVEAARAARLAELRAEVEAKVAA
B28: E81L (designed binder)
chain: MTLQELLREEALRRAEAEAFRYALELLAEKFPEQKEYLLDLAEEIESQIRSLSGVDVEDVRKFLDKEWAWVKELLAEHPALLAEVEAARAARLAELRAEVEAKVAA
B29: A23F (designed binder)
chain: MTLQELLREEALRRAEAEAFRYFLELLAEKFPEQKEYLLDLAEEIESQIRSLSGVDVEDVRKFLDKEWAWVKELLAEHPAELAEVEAARAARLAELRAEVEAKVAA
B30: A19R (designed binder)
chain: MTLQELLREEALRRAEAERFRYALELLAEKFPEQKEYLLDLAEEIESQIRSLSGVDVEDVRKFLDKEWAWVKELLAEHPAELAEVEAARAARLAELRAEVEAKVAA
B31: E67L (designed binder)
chain: MTLQELLREEALRRAEAEAFRYALELLAEKFPEQKEYLLDLAEEIESQIRSLSGVDVEDVRKFLDKLWAWVKELLAEHPAELAEVEAARAARLAELRAEVEAKVAA
B32: D40R (designed binder)
chain: MTLQELLREEALRRAEAEAFRYALELLAEKFPEQKEYLLRLAEEIESQIRSLSGVDVEDVRKFLDKEWAWVKELLAEHPAELAEVEAARAARLAELRAEVEAKVAA
B33: E43C (designed binder)
chain: MTLQELLREEALRRAEAEAFRYALELLAEKFPEQKEYLLDLACEIESQIRSLSGVDVEDVRKFLDKEWAWVKELLAEHPAELAEVEAARAARLAELRAEVEAKVAA
B34: F31K (designed binder)
chain: MTLQELLREEALRRAEAEAFRYALELLAEKKPEQKEYLLDLAEEIESQIRSLSGVDVEDVRKFLDKEWAWVKELLAEHPAELAEVEAARAARLAELRAEVEAKVAA

Target: T1, TNFR1 (Homo sapiens, UniProt P19438)
T1 chain: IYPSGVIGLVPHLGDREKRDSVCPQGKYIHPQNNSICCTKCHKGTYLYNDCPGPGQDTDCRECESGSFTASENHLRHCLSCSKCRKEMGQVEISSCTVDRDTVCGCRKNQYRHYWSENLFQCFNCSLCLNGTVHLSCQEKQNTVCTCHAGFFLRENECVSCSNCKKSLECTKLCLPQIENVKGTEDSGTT
Assay: yeast display SC50

Point of comparison: B34, “apparent Kd (screen)” value 1.16 nM. Against it:
- B1 — 1.8-fold higher, 2.05 nM
- B2 — 2.4-fold lower, 0.49 nM
- B3 — 4.6-fold lower, 0.252 nM
- B4 — 8.2-fold lower, 0.142 nM
- B5 — within 1.5-fold, 1.05 nM
- B6 — within 1.5-fold, 1.4 nM
- B7 — 2.2-fold lower, 0.539 nM
- B8 — 2.9-fold lower, 0.405 nM
- B9 — 2.6-fold higher, 3 nM
- B10 — 14-fold higher, 16.7 nM
- B11 — 2.4-fold lower, 0.49 nM
- B12 — 2.2-fold lower, 0.539 nM
- B13 — 2.6-fold lower, 0.446 nM
- B14 — 1.8-fold lower, 0.653 nM
- B15 — 2.4-fold lower, 0.49 nM
- B16 — 1.8-fold lower, 0.653 nM
- B17 — 2.1-fold higher, 2.48 nM
- B18 — 1.8-fold lower, 0.653 nM
- B19 — 2.2-fold lower, 0.539 nM
- B20 — 4.2-fold higher, 4.83 nM
- B21 — within 1.5-fold, 0.869 nM
- B22 — within 1.5-fold, 0.956 nM
- B23 — 1.8-fold lower, 0.653 nM
- B24 — 4.2-fold lower, 0.277 nM
- B25 — 4.2-fold lower, 0.277 nM
- B26 — within 1.5-fold, 1.27 nM
- B27 — 3.8-fold higher, 4.39 nM
- B28 — 1.8-fold lower, 0.653 nM
- B29 — the same, 1.16 nM
- B30 — 3.4-fold higher, 3.99 nM
- B31 — 9-fold higher, 10.4 nM
- B32 — 11-fold higher, 12.5 nM
- B33 — 2.9-fold lower, 0.405 nM

From publication PMC12416549 (2024)
